Data on 3 molecules can be found in US20240360226A1 (AstraZeneca / MedImmune, published 2024).

Assay [1] concerns the target EGFR on human tumour cells (A431, NCI-H1975, HCC827) (human) (UniProt P00533). Briefly: cell-based or functional assay.
A further assay concerns the target T1, HER3 (Homo sapiens (Human), UniProt P21860 20-643).
T1 construct: also called EGFR HER family protein HER3
Nature of the assay: ELISA, antigen coated at 1 ug/mL, anti-human Fab-HRP detection, A450. In general terms: ELISA stands for enzyme-linked immunosorbent assay.

The target of assay [2] is T2, Human EGFR (recombinant, soluble monomeric) (human, UniProt P00533 25-645).
T2 construct: also called EGFR antigen; recombinant human EGFR
Briefly: SPR (Biacore T200), antibody captured on anti-human IgG, soluble monomeric antigen as analyte, 25 C. How it is done:
(§1) Mouse anti-human IgG was immobilized on a CM4 sensor chip with a final surface density of ˜2000 resonance units (RUs). A reference flow cell surface was also prepared on this sensor chip using identical immobilization protocol. Test and control article antibodies were prepared at 5-20 nM in instrument buffer (HBS-EP buffer; 0.01M HEPES, pH 7.4, 0.15M NaCl, 3 mM EDTA, and 0.005% P-20), along with 3-fold serial dilutions of purified EGFR (0.27-200 nM human, 0.4-900 nM cyno, and 4-1000 nM murine) or cMET proteins (0.27 to 66 nM human and 0.27-22 nM cyno) in instrument buffer. A sequential approach was utilized for kinetic measurements. Antibodies were first injected over the capture surface, at a flow rate of 10 μL/minute. Once the binding of the captured antibody stabilized, a single concentration of the analyte was injected over both capture and reference surfaces, at a flow rate of 75 μL/minute. The resulting binding response curves yielded the association phase data. Following the injection of analyte, the flow was then switched back to instrument buffer for 15 minutes to permit the collection of dissociation phase data, followed by a 1-minute pulse of 10 mM glycine, pH 1.5, to regenerate the antibody-captured surface on the chip. Binding responses against test and control article antibodies were recorded from duplicate injections of each concentration of analyte. In addition, several buffer injections were interspersed throughout the injection series. Select buffer injections were used along with the reference cell responses to correct the raw data sets for injection artifacts and/or nonspecific binding interactions, commonly referred to as “double referencing”. Corrected binding data were globally fit to a 1:1 binding model (Biacore T200 Evaluation software 2.0, GE Healthcare, Pittsburgh, PA).
(§2) Kinetic measurements to soluble monomeric forms of EGFR and cMET were performed using a BIACore instrument.
In general terms: In SPR one partner is held on a chip, and binding of the other changes the refractive index at the surface.

Assay [3] deals with T3, Mouse EGFR (recombinant, soluble monomeric) (mouse, UniProt Q01279 25-647).
T3 construct: also called murine EGFR
The assay is described as above. The protocol:
as §1, §2

The target of assay [4] is T4, Cynomolgus monkey EGFR (recombinant, soluble monomeric) (cynomolgus monkey, UniProt P55245 25-645 (rhesus entry)).
T4 construct: also called cyno EGFR
The assay is described as above. The protocol: as §1, §2

A further assay has as its target T5, HER2 (Homo sapiens (Human), UniProt P04626 23-652).
T5 construct: also called EGFR HER family protein HER2
Briefly: ELISA, antigen coated at 1 ug/mL, anti-human Fab-HRP detection, A450.

A further assay has as its target T6, HER4 (Homo sapiens (Human), UniProt Q15303 26-651).
T6 construct: also called EGFR HER family protein HER4
T6 sequence: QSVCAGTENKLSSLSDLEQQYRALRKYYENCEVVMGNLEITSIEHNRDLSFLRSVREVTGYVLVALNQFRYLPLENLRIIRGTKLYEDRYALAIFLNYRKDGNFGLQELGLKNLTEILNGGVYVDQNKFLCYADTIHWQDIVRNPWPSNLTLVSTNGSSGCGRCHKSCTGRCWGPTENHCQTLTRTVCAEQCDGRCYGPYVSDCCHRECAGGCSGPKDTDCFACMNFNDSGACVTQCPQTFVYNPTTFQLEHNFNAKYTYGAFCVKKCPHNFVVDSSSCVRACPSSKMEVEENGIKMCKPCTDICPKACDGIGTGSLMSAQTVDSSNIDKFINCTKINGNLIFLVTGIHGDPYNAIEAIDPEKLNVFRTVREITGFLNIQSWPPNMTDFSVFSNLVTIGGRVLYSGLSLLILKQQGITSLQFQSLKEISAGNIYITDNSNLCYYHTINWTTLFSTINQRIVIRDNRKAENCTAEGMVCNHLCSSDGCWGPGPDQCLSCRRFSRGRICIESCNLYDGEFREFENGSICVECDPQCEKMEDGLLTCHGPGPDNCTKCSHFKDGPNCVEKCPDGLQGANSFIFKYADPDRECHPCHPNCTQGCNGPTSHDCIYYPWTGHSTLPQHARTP
The assay is described as above.

A further assay has as its target Mouse cMET (recombinant) (mouse, UniProt P16056 25-931, limits assumed). The assay is described as above. The protocol: (§3) Specificity for EGFR and cMET species paralogs and closely related family members was determined by ELISA. Briefly, antigen solutions were prepared in PBS at 1 μg/mL and 50 microliters was coated onto half area ELISA assay plates. Plates were washed and blocked with 1% BSA in PBS containing 0.005% Tween-20 (PBS-T) for one hour at room temperature. […] Wells were incubated with 50 microliters of the indicated primary antibodies diluted in PBS-T in a 1:3 dilution series, starting at 10 μg/mL and ending at 0.002 ug/mL, except for the HER4 binding mAb control, MAB1131, for which the series started at 1 μg/mL. The wells were washed 4 times in PBS-T, then 50 μl of goat anti-human Fab HRP-labeled secondary antibody, diluted 1:5000 in PBS-T, was added to each well and incubated for one hour at room temperature. […] 50 microliters of TMB stop solution was added to all wells and the absorbance was read at 450 nm on a SpectraMax M5 microplate reader. Data were analyzed in the SoftMax Pro 5 software and plotted using GraphPad Prism 7 graphing software.
(§4) To determine the species cross reactivity, ELISA assays were carried out as described above.

The target of assay [5] is T7, Human cMET (recombinant, soluble monomeric) (human, UniProt P08581 25-932).
T7 construct: also called His-tagged cMET antigen
The assay is described as above. How it is done: as §3, §4

Assay [6] deals with T8, Cynomolgus monkey cMET (recombinant, soluble monomeric) (cynomolgus monkey, UniProt A0M8R7 25-932 (Papio anubis entry)).
T8 construct: also called cyno c-Met
The assay is described as above. How it is done: as §3, §4

In assay [7] the target is T7, Human cMET (recombinant, soluble …). Nature of the assay: SPR (Biacore T200), antibody captured on anti-human IgG, soluble monomeric antigen as analyte, 25 C. The protocol: as §1, §2
Assay [8] addresses T8, Cynomolgus monkey cMET (recombinant, …). Described as above. How it is done: as §1, §2

T8 sequence (A0M8R7 25-932 S170N/I621T): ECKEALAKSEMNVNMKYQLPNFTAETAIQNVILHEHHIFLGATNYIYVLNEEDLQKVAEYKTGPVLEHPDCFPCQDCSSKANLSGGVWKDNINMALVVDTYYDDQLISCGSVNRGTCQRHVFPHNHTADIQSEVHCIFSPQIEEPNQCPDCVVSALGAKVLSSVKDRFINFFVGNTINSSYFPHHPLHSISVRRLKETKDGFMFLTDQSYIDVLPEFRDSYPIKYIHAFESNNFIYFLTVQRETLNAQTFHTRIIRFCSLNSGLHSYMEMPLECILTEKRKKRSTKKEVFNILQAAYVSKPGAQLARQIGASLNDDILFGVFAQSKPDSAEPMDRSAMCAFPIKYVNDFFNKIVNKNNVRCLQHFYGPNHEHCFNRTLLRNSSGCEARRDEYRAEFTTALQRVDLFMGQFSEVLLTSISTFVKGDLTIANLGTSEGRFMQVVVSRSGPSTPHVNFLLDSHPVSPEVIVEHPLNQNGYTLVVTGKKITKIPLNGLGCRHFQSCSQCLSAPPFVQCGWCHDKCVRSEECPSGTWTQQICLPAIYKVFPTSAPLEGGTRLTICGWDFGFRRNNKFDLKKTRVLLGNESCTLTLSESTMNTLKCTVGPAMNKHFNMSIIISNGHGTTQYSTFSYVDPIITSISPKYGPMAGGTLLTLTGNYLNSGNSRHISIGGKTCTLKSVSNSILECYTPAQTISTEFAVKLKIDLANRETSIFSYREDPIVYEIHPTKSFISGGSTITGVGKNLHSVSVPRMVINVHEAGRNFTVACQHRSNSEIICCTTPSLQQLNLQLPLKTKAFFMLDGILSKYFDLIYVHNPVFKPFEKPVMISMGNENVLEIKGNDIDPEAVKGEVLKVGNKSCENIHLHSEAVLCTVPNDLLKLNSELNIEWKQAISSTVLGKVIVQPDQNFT
T7 sequence (P08581 25-932): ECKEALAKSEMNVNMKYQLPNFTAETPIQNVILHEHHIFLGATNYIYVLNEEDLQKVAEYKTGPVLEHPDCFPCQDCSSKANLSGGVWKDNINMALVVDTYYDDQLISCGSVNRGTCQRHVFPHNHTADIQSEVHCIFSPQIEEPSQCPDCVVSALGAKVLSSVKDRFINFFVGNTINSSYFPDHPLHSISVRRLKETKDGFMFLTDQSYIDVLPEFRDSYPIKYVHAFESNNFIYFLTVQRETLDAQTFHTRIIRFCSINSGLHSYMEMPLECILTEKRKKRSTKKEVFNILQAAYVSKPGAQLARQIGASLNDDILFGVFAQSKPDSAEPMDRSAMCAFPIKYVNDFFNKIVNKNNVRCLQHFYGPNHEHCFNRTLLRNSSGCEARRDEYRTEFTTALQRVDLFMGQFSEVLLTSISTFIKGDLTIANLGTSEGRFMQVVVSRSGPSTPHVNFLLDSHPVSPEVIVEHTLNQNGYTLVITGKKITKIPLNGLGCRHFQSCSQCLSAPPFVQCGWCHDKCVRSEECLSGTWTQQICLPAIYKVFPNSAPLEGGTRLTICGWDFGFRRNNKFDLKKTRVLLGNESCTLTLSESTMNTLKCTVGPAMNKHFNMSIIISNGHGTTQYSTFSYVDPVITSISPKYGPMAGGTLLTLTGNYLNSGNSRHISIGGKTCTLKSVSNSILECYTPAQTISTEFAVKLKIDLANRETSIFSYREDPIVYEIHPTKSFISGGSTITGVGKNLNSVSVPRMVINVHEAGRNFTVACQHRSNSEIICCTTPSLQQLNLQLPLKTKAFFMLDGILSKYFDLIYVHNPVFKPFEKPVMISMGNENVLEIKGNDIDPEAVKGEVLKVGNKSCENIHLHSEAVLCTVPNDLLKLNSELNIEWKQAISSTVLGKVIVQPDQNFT
Mouse cMET (recombinant), sequence (P16056 25-931 limits assumed): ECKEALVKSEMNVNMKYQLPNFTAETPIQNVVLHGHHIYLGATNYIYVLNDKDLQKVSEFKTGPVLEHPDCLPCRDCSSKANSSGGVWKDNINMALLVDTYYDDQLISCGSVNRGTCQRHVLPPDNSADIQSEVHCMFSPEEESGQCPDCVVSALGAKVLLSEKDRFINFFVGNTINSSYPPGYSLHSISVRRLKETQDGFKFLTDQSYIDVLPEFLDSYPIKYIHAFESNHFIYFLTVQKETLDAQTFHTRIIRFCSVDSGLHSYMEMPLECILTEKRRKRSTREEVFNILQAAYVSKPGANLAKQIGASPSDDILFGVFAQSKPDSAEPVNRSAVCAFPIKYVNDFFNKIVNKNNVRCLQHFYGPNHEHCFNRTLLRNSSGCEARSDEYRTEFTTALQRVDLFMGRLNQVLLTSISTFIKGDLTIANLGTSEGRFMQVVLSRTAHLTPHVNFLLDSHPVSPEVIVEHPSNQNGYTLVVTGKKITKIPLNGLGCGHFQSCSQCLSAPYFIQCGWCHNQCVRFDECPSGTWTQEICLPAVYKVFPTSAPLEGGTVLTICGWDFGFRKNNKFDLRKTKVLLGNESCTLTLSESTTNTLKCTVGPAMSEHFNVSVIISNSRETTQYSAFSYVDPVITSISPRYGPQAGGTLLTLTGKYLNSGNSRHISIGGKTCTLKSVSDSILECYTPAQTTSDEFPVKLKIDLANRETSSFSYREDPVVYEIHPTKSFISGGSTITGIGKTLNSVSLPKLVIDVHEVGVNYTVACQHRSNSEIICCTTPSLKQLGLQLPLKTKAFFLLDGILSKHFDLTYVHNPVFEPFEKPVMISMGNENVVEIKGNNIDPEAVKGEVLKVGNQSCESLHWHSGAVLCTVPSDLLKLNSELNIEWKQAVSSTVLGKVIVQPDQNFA

B1: RAA22/R347-AZ1508 (bispecific antibody, part only; not given: R347 control arm and constant regions, V domains shown, part only)
VH: QVQLVQSGAEVKKPGSSVKVSCKASGGTFSDNDFSWVRQAPGQGLEWMGAIVAVFRTETYAQKFQDRVKITADISTRTTYMELSSLRSEDTAVYYCARRLMSAISGPGAPLLMWGQGTLVTVSS
VL: QSALTQPRSVSGSPGQSVTISCTGTSSDVGGYNYVSWYQQHPGKAPKLMIYDVSKRPSGVPDRFSGSKSGNTASLTISGLQAEDEADYYCSSYTSSDTLEIFGGGTKLTVL
In [1], B1 showed an IC50, CellTiter-Glo cytotoxicity on NCI H1975 cells (FIG. 11) of 20.5 nM and a fold difference in IC50 against the bispecific EGFR-cMET ADC of 65 fold.

B2: RAA22 IgG (antibody, V domains shown)
VH: QVQLVQSGAEVKKPGSSVKVSCKASGGTFSDNDFSWVRQAPGQGLEWMGAIVAVFRTETYAQKFQDRVKITADISTRTTYMELSSLRSEDTAVYYCARRLMSAISGPGAPLLMWGQGTLVTVSS
VL: QSALTQPRSVSGSPGQSVTISCTGTSSDVGGYNYVSWYQQHPGKAPKLMIYDVSKRPSGVPDRFSGSKSGNTASLTISGLQAEDEADYYCSSYTSSDTLEIFGGGTKLTVL
notes: Bivalent parental IgG; Only the variable domains are tied to the parental IgG; also called anti-EGFR antibody clone RAA22
Turning to B2, the binding result (with HER3; with HER2; with HER4; in the assay with Mouse cMET (recombinant); in assay [5]; in assay [6]) was “no binding (tested: 10 ug/ml)” throughout. For the same molecule, the Kd (as a rule, a measure of binding affinity in units of concentration) was 46.6 nM in assay [2], 488 nM in assay [3] and 170 nM in assay [4]. The koff – broadly, the first-order rate constant of dissociation – in assay [2] was 0.00206 s⁻¹; in assay [3], 0.019 s⁻¹; in assay [4] it was 0.00601 s⁻¹. Besides, the kon – broadly, the rate constant with which the complex forms – in assay [2] turned out to be 44100 M⁻¹ s⁻¹; in assay [3], 40300 M⁻¹ s⁻¹; in [4], 35400 M⁻¹ s⁻¹.

B3: QD6/B09-57 DuetMab (bispecific antibody, human IgG1, kappa, lambda)
heavy 1: QVQLVQSGAEVKKPGSSVKVSCKASGGTFSDNDFSWVRQAPGQGLEWMGAIVAVVRTETYAQKFQDRVKITADISTRTTYMELSSLRSEDTAVYYCARRLMSAISGPGAPLLMWGQGTLVTVSSASTKGPSVFPLAPSSKSTSGGTAALGCLVKDYFPEPVTVSWNSGALTSGVHTFPAVLQSSGLYSLSSVVTVPSSSLGTQTYICNVNHKPSNTKVDKRVEPKSCDKTHTCPPCPAPELLGGPSCVFLFPPKPKDTLMISRTPEVTCVVVDVSHEDPEVKFNWYVDGVEVHNAKTKPREEQYNSTYRVVSVLTVLHQDWLNGKEYKCKVSNKALPAPIEKTISKAKGQPREPQVCTLPPSREEMTKNQVSLSCAVKGFYPSDIAVEWESNGQPENNYKTTPPVLDSDGSFFLVSKLTVDKSRWQQGNVFSCSVMHEALHNHYTQKSLSLSPGK
light 1: QSALTQPRSVSGSPGQSVTISCTGTSSDVGGYNYVSWYQQHPGKAPKLMIYDVSERPSGVPDRFSGSKSGNTASLTISGLQAEDEADYYCFSYTSSDTLEIFGGGTKLTVLGQPKAAPSVTLFPPSSEELQANKATLVCLISDFYPGAVTVAWKADSSPVKAGVETTTPSKQSNNKYAASSYLSLTPEQWKSHRSYSCQVTHEGSTVEKTVAPTECS
heavy 2: QVQLVQSGAEVKKPGASVKVSCKASGYTFTDYYIHWVRQATGQGLEWMGWMNPNSGNTGYAQKFQGRVTMTRDTSISTAYMELSSLRSEDTAVYYCARGQGYTHSWGQGTMVTVSSASTKGPSVCPLAPSSKSTSGGTAALGCLVKDYFPEPVTVSWNSGALTSGVHTFPAVLQSSGLYSLSSVVTVPSSSLGTQTYICNVNHKPSNTKVDKRVEPKSVDKTHTCPPCPAPELLGGPSCVFLFPPKPKDTLMISRTPEVTCVVVDVSHEDPEVKFNWYVDGVEVHNAKTKPREEQYNSTYRVVSVLTVLHQDWLNGKEYKCKVSNKALPAPIEKTISKAKGQPREPQVYTLPPCREEMTKNQVSLWCLVKGFYPSDIAVEWESNGQPENNYKTTPPVLDSDGSFFLYSKLTVDKSRWQQGNVFSCSVMHEALHNHYTQKSLSLSPG
light 2: DIQMTQSPSTLSASVGDRVTITCRASEGIYHWLAWYQQKPGKAPKLLIYKASSLASGVPSRFSGSGSGTEFTLTISSLQPDDFATYYCQQYSNYPPTFGGGTKLEIKRTVAAPSVFIFPPCDEQLKSGTASVVCLLNNFYPREAKVQWKVDNALQSGNSQESVTEQDSKDSTYSLSSTLTLSKADYEKHKVYACEVTHQGLSSPVTKSFNRGEV
notes: Monovalent bispecific IgG1 DuetMab with cysteine insertion after Ser239; Labelled with AlexaFluor-647 in the microscopy experiments; also called QD06/B09-57; bispecific EGFR/cMET DuetMAb
For the molecule B3, the binding result with HER3, with HER2, with HER4 and in the assay with Mouse cMET (recombinant) was “no binding (tested: 10 ug/ml)” each time. In addition, the Kd stood at 5.9 nM in [2]; 1.6 nM in assay [7]; 6.2 nM in assay [3]; 2.8 nM in [4]; 2.2 nM in [8]. The off-rate constant (koff) worked out at 0.000374 s⁻¹ in assay [2]; 0.000696 s⁻¹ in [7]; 0.00078 s⁻¹ in assay [3]; 0.000585 s⁻¹ in assay [4]; 0.00206 s⁻¹ in assay [8]. Further, the kon turned out to be 63500 M⁻¹ s⁻¹ in assay [2]; 425000 M⁻¹ s⁻¹ in assay [7]; 126000 M⁻¹ s⁻¹ in assay [3]; 210000 M⁻¹ s⁻¹ in assay [4]; 958000 M⁻¹ s⁻¹ in [8].
